B1: library; numbered along this chain (parent)
chain: MNIQIGELAKRTACPVVTIRFYEQEGLLPPPGRSRGNFRLYGEEHVERLQFIRHCRSLDMPLSDVRTLLSYRKRPDQDCGEVNMLLDEHIRQVESRIGALLELKHHLVELREACSGARPAQSCGILQGLSDCVCDTRGTTAHPSD

± gives the standard deviation of the averaged measurements.

The variants in data set [1] derive from B1. As to the kind of experiment: sfGFP reporter fluorescence (15 h) (µM FITC); higher = higher leak. To be noted: library round: Round 0; ligand: none. In a few lines:
(§1)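 With 1 µM lead chloride, 30 µM zinc acetate or no metal present, 1 μL Echo-assembled reactions were incubated 15 hr at 30 °C. They contained BL21 Star (DE3) PANOx-SP extract, 30 μg/mL GamS, the pPbrR-sfGFP reporter plasmid and PCR-made linear PbrR templates Echo-normalized to 5 nM. Endpoint sfGFP fluorescence was read on a Synergy Neo2 at 485/528 nm against FITC standards in 50 mM sodium borate pH 8.5. Results are expressed as µM FITC.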

Variants of B1 are the subject of data set [2]. As to the kind of experiment: sfGFP reporter fluorescence (15 h) (µM FITC); higher = stronger transcriptional activation. To be noted: library round: Round 0. Summed up: as §1

For the variant MNIQIGELAKRTACPVVTIRFYEQEGLLPPPGRSRGNFRLYGEEHVERLQFIRHCRSLDMPLSDVRTLLSYRKRADQDCGEVNMLLDEHIRQVESRIGALLELKHHLVELREACSGARPAQSCGILQGLSDCVCDTRGTTAHPSD [P75A], the sfGFP reporter fluorescence came out at 0.0618 ± 0.0023 in data set [1], 0.0711 ± 0.01 in data set [2] (ligand: 1 µM Pb) and 0.519 ± 0.049 in data set [2] (ligand: 30 µM Zn).

With MNIQIGELAKRTACPVVTIRFYEQEGLLPPPGRSRGNFRLYGEEHVERLQFIRHCRSLDMPLSDVRTLLSYRKRPDQDCGEVNMLLDEHIRQVESRIGALLELKHHLVELREACSGARPAQSWGILQGLSDCVCDTRGTTAHPSD [C123W], the sfGFP reporter fluorescence in data set [1] worked out at 0.0575 ± 0.001; in data set [2] (ligand: 1 µM Pb), 0.05919 ± 0.00026; in data set [2] (ligand: 30 µM Zn), 0.0546 ± 0.0026.

On to MNIQIGELAKRTACPVVTIRFYEQEGLLPPPGRSRGNFRLYGEEHVERLQFIRHCRSLDMPLSDVRTLLSYRKRPDQDCGEVNMLLDEHIRQVESRIGALLELKHHLVELREACSGARPAQSCGILQGLSDCVCATRGTTAHPSD [D135A], for which the sfGFP reporter fluorescence in data set [1] is 0.0733 ± 0.0015; in data set [2] (ligand: 1 µM Pb), 0.0834 ± 0.0029; in data set [2] (ligand: 30 µM Zn), 0.335 ± 0.0078.

For the variant MNIQIGELAKRTACPVVTIRFYEQEGLLPPPGRSRGNFRLYGSEHVERLQFIRHCRSLDMPLSDVRTLLSYRKRPDQDCGEVNMLLDEHIRQVESRIGALLELKHHLVELREACSGARPAQSCGILQGLSDCVCDTRGTTAHPSD [E43S], the sfGFP reporter fluorescence in data set [1] was determined as 0.06102 ± 0.00026; in data set [2] (ligand: 1 µM Pb) it was 0.0889 ± 0.015; in data set [2] (ligand: 30 µM Zn), 1.41 ± 0.17.

In the case of MNIQIGELAKRTACPVVTIRFYEQEGLLPPPGRSRGNFRLYGEEHVERLQFIRHCRSLDMPYSDVRTLLSYRKRPDQDCGEVNMLLDEHIRQVESRIGALLELKHHLVELREACSGARPAQSCGILQGLSDCVCDTRGTTAHPSD [L62Y], the sfGFP reporter fluorescence in data set [1] was found to be 0.0599 ± 0.0023; in data set [2] (ligand: 1 µM Pb), 0.0623 ± 0.00052; in data set [2] (ligand: 30 µM Zn), 0.0748 ± 0.0057.

As for MNIQIGELAKRTACPVVTIRFYEQEGLLPPPGRSRGNFRLYGEEHVERLQFIRHCRSLDMPLSDVRTLLSYRKRPDQDCGEVNMLLDEHIRQVISRIGALLELKHHLVELREACSGARPAQSCGILQGLSDCVCDTRGTTAHPSD [E94I], the figures for the sfGFP reporter fluorescence in data set [1], in data set [2] (ligand: 1 µM Pb) and in data set [2] (ligand: 30 µM Zn) were 0.0555 ± 0.0034, 0.08008 ± 0.00026 and 0.714 ± 0.013, respectively.

For MNIQIGNLAKRTACPVVTIRFYEQEGLLPPPGRSRGNFRLYGEEHVERLQFIRHCRSLDMPLSDVRTLLSYRKRPDQDCGEVNMLLDEHIRQVESRIGALLELKHHLVELREACSGARPAQSCGILQGLSDCVCDTRGTTAHPSD [E7N], the sfGFP reporter fluorescence was determined as 0.05919 ± 0.00026 in data set [1], 0.088 ± 0.0047 in data set [2] (ligand: 1 µM Pb) and 0.858 ± 0.081 in data set [2] (ligand: 30 µM Zn).

Turning to MNIQIGELAKRTACPVVTIRFYEQEGLLPPPGRSRGNFRLYGEEHVERLQFIRHCRSLDMPLSDVRTLLSYRKRPDQDCGEVNMHLDEHIRQVESRIGALLELKHHLVELREACSGARPAQSCGILQGLSDCVCDTRGTTAHPSD [L85H], the sfGFP reporter fluorescence was determined as 0.0603 ± 0.0018 in data set [1], 0.05827 ± 0.00052 in data set [2] (ligand: 1 µM Pb) and 0.0629 ± 0.00078 in data set [2] (ligand: 30 µM Zn).

For the variant MNIQIGELAKRTACPVVTIRFYEQEGLLPPPGRSRGNFRLYGEEHVERLQFIRHCRSLDMPLSDVRTLLSYRKRPDQDCGEVNMYLDEHIRQVESRIGALLELKHHLVELREACSGARPAQSCGILQGLSDCVCDTRGTTAHPSD [L85Y], the sfGFP reporter fluorescence in data set [1] was 0.0592 ± 0.0039; in data set [2] (ligand: 1 µM Pb), 0.0603 ± 0.00078; in data set [2] (ligand: 30 µM Zn), 0.253 ± 0.0096.

MNIQIGELAKRTACPVVTIRFYEQEGLLPPPGRSRGNFRLYGEEHVERLQFIRHCRSLDMPLSKVRTLLSYRKRPDQDCGEVNMLLDEHIRQVESRIGALLELKHHCVELREACSGARPAQSCGILQILSDCVCDTRGTTAHPSD [D64K L107C G128I]: the figures for the sfGFP reporter fluorescence in data set [1], in data set [2] (ligand: 1 µM Pb) and in data set [2] (ligand: 30 µM Zn) were 4.71 ± 0.58, 4.78 ± 0.6 and 4.48 ± 0.43, respectively.

For the variant MNIQIGELAKATACPVVTIRFYEQEGLLPPPGRSRGNFRLYGEEHVERLQFIRHCRSLDMPLSDVRTLLSYRKRPDQDCGEVNMLLDEHIRQVESRIGALLELKHHLVELREACSGARPAQSCGILQGLSDCVCDTRGTTAHPSD [R11A], the figures for the sfGFP reporter fluorescence in data set [1], in data set [2] (ligand: 1 µM Pb) and in data set [2] (ligand: 30 µM Zn) were 0.0548 ± 0.0023, 0.0709 ± 0.0013 and 0.565 ± 0.025, respectively.

As for MNIQIGELAKRTACPVVTIRFYEQEGLLPPPGRSRGNFRLYGEEHVERLQFIRHCRSLDMPLSDVRTLLSYRKRPDQDCGEVNMLLDEHIRQVESRIGALLELKHHLHELREACSGARPAQSCGILQGLSDCVCDTRGTTAHPSD [V108H], the sfGFP reporter fluorescence was determined as 0.05772 ± 0.00026 in data set [1], 0.0814 ± 0.0073 in data set [2] (ligand: 1 µM Pb) and 0.846 ± 0.019 in data set [2] (ligand: 30 µM Zn).

Consider MNIQIGELAKRTACPVVTIRFYEQEGLLPPPGRSRGNFRLYGEEHVERLQFIRHCRSLDMPLSDVRTLLSYRKRPDQDCGEVNMLLDEHIRQVESRIGALLELKHHLVELREACSGARPAQSCGDLQGLSDCVCDTRGTTAHPSD [I125D], for which the sfGFP reporter fluorescence in data set [1] came out at 0.0585 ± 0.0013; in data set [2] (ligand: 1 µM Pb), 0.0583 ± 0.0031; in data set [2] (ligand: 30 µM Zn) it was 0.0559 ± 0.0039.

On to MNIQIGELAKRTACPVVTIRFYEQEGLLPPPGRSRGNFRLYGEEHVERLQFIRHCRSLDMPLSDVRTLLSYRKRPDQDCGEVNMLLDEHIRQVESRIGALLELNHHLVELREACSGARPAQSCGILQGLSDCVCDTRGTTAHPSD [K104N], for which the results for the sfGFP reporter fluorescence in data set [1], in data set [2] (ligand: 1 µM Pb) and in data set [2] (ligand: 30 µM Zn) were 0.0557 ± 0.0073, 0.0823 ± 0.025 and 0.879 ± 0.15, respectively.

Values taken from the supplement of paper PMC12783771.
